Experimental findings from US20170306014A1 (INNATE PHARMA, published 2017) are described below.

Numbering of substitutions follows the chain as printed. Names and notes keep the numbering of the source.

One assay has as its target T1, Human Siglec-11 (human, UniProt Q96RL6 29-698).
T1 construct: CHO HuSiglec-11 cell line; also called HuSiglec-11
T1 sequence: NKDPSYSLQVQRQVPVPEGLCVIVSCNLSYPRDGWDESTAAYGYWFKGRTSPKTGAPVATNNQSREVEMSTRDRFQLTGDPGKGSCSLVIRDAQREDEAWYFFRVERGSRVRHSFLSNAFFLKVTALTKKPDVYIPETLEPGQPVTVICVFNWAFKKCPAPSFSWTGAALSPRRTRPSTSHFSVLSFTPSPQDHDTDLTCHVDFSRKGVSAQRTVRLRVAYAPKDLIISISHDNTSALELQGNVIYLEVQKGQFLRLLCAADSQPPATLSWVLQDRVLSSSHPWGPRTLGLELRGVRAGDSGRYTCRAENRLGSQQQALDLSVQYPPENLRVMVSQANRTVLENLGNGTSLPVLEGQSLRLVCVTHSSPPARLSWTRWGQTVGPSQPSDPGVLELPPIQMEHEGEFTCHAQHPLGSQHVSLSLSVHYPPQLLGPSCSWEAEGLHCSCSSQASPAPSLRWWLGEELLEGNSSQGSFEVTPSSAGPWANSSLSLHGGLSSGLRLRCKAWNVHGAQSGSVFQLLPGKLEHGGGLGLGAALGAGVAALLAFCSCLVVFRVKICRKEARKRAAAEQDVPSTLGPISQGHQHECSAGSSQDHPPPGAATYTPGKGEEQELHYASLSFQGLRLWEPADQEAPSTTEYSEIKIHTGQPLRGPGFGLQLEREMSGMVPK
The assay can be described thus: flow cytometry on CHO HuSiglec-11 cell line. On the procedure:
(§1) Cells expressing Siglec-3, -5, -6, -8, -10, -11 and -12 were generated and a representative subset of the cross-reactive Siglec-7/9 antibodies were tested by flow cytometry for binding to the cells. Amino acid sequences and Genbank references for Siglec polypeptides used are shown below in Table 1.
(§2) Briefly, HuSiglec-expressing CHO cell lines (that expressed one of the Siglecs) were used.

Another assay addresses T2, Human Siglec-8 (human, UniProt Q9NYZ4 17-499).
T2 construct: CHO HuSiglec-8 cell line; also called HuSiglec-8
The experiment in a line: flow cytometry on CHO HuSiglec-8 cell line. On the procedure: as §1, §2

A further assay concerns the target T3, Human Siglec-9 (human, UniProt Q9Y336 18-463).
T3 construct: Expressed on CHO cells (huSiglec-9-expressing CHO cell line); also called huSiglec-9; CD329
The experiment in a line: flow cytometry on Siglec-9-expressing cell line.

In a further assay the target is T4, Human Siglec-3 (human, UniProt P20138 18-364).
T4 construct: CHO HuSiglec-3 cell line; also called HuSiglec-3; CD33
T4 sequence (P20138 18-364 R69G): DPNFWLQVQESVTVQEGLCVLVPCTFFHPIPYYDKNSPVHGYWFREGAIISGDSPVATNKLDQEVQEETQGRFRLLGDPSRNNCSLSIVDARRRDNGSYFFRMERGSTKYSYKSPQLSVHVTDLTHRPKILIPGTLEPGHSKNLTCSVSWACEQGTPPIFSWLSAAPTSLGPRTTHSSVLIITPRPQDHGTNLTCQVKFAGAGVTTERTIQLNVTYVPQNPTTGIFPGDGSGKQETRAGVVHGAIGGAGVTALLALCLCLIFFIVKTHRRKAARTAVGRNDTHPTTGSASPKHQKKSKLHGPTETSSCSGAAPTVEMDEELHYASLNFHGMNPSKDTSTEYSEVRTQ
The experiment in a line: flow cytometry on CHO HuSiglec-3 cell line. On the procedure:
as §1, §2

For another assay, the target named is T5, Human Siglec-10 (human, UniProt Q96LC7 17-697).
T5 construct: CHO HuSiglec-10 cell line; also called HuSiglec-10
T5 sequence: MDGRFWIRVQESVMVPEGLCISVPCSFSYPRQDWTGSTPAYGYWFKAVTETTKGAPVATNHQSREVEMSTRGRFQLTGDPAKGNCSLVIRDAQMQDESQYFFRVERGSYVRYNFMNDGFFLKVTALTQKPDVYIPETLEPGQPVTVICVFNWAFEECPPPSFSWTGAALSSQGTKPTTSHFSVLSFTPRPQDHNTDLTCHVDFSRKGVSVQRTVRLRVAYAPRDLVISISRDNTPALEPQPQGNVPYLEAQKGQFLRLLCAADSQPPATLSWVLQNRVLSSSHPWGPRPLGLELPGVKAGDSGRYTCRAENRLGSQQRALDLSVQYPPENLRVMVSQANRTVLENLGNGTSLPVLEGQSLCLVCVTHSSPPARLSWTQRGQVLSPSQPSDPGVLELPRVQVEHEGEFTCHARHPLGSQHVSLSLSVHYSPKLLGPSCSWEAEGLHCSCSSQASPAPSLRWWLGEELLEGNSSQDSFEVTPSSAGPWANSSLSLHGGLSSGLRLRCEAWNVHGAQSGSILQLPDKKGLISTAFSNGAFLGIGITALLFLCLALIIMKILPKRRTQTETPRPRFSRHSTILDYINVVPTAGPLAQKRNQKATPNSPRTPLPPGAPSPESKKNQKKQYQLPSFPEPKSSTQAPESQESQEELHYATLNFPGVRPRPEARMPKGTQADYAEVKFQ
The assay can be described thus: flow cytometry on CHO HuSiglec-10 cell line. On the procedure:
as §1, §2

Another assay has as its target T6, Human Siglec-6 (human, UniProt O43699 27-453).
T6 construct: CHO HuSiglec-6 cell line; also called HuSiglec-6
The assay can be described thus: flow cytometry on CHO HuSiglec-6 cell line. The procedure: as §1, §2

A further assay deals with T7, Human Siglec-12 (human, UniProt Q96PQ1 19-595).
T7 construct: CHO HuSiglec-12 cell line; also called HuSiglec-12
T7 sequence (Q96PQ1 19-595): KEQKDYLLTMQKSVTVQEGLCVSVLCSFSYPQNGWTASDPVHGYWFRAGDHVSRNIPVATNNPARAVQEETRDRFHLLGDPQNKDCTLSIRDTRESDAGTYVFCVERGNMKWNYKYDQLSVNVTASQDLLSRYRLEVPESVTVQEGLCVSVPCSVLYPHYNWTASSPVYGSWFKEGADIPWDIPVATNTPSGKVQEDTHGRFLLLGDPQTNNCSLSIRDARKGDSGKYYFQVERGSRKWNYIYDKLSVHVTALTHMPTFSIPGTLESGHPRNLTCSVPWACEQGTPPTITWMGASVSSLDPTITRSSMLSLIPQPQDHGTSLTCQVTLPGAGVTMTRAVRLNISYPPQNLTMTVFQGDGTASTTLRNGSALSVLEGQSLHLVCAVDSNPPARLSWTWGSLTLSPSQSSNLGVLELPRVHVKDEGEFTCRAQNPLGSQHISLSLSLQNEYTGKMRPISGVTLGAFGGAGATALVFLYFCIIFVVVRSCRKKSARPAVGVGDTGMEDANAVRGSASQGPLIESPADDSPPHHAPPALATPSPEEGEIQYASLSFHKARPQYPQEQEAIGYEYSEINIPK
The assay can be described thus: flow cytometry on CHO HuSiglec-12 cell line. On the procedure: as §1, §2

For another assay, the target named is T8, Human Siglec-7 (human, UniProt Q9Y286 19-467).
T8 construct: Expressed on CHO cells (huSiglec-7-expressing CHO cell line); also called huSiglec-7; CD328
T8 sequence (Q9Y286 19-467): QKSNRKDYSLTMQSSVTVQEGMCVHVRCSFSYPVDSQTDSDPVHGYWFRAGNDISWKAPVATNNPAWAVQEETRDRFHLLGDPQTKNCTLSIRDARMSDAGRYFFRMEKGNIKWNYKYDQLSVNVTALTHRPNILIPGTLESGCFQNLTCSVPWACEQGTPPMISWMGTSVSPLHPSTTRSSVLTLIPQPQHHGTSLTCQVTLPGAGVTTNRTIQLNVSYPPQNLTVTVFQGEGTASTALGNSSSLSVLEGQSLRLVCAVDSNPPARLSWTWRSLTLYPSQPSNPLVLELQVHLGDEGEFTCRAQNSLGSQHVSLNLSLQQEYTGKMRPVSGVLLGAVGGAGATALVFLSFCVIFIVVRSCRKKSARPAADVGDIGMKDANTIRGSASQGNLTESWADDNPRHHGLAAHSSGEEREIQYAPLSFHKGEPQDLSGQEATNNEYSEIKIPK
The experiment in a line: flow cytometry on Siglec-7-expressing cell line.

Another assay concerns the target T9, Human Siglec-5 (human, UniProt O15389 17-551).
T9 construct: CHO HuSiglec-5 cell line; also called HuSiglec-5
T9 sequence: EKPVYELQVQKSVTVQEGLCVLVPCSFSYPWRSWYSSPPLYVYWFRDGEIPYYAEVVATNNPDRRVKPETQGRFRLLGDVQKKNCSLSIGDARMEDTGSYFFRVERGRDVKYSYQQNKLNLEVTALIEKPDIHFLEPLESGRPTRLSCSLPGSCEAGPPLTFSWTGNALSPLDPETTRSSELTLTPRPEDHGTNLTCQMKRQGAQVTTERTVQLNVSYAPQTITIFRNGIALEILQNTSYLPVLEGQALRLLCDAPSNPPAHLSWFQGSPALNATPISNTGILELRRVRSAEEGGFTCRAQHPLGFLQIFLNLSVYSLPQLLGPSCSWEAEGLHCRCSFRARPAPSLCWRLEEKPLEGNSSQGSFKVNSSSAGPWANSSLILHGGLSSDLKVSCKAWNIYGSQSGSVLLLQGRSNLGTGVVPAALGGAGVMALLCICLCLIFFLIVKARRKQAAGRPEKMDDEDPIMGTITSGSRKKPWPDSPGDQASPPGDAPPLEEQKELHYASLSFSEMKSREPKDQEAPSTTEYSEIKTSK
The experiment in a line: flow cytometry on CHO HuSiglec-5 cell line. On the procedure: as §1, §2

T3 sequence (Q9Y336 18-463): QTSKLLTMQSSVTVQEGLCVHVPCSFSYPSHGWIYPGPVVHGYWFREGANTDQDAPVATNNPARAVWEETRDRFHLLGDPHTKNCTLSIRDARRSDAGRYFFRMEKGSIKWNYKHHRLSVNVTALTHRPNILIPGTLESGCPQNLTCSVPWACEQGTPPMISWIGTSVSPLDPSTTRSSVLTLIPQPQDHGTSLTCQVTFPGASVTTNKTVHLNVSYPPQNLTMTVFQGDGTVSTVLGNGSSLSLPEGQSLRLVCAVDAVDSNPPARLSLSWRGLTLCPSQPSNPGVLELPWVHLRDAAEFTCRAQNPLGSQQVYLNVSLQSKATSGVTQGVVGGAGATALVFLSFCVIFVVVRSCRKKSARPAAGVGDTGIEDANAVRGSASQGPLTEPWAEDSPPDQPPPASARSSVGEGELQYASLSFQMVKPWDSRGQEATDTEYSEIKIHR
T2 sequence (Q9NYZ4 17-499): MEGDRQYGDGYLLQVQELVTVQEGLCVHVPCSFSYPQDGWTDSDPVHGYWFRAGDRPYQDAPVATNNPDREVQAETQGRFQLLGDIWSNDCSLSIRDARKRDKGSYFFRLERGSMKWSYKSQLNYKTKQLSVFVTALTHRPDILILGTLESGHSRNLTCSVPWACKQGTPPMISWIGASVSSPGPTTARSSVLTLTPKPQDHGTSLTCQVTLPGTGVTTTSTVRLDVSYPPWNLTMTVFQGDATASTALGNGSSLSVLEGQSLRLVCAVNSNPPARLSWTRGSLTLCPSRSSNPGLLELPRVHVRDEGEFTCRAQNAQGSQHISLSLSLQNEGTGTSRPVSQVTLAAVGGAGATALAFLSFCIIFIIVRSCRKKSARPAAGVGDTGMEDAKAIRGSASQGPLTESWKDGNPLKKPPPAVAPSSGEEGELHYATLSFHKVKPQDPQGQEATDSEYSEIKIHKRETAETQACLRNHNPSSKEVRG
T6 sequence (O43699 other isoform, or with tags, fused parts or gaps): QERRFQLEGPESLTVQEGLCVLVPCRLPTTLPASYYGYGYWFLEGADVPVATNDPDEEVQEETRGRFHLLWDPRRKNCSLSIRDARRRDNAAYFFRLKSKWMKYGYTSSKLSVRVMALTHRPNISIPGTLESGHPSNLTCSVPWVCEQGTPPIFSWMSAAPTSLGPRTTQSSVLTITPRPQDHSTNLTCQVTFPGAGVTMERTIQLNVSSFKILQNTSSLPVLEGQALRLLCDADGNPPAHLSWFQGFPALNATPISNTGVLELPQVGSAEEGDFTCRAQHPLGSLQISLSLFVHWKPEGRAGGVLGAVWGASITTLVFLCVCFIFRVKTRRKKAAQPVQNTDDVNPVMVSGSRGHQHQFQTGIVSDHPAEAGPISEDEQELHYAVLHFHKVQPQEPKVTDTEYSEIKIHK

B1: antibody 1H9 (antibody, V domains shown)
VH: QVQLQQSGAELVRPGASVKLSCKAMGNTFTDYEMHWVKQTPVHGLEWIGAIHPGSGGTVYNQKFRGKAALTADKSSSTAYMELSSLTSEDSAVYYCTREVSGTVYWGQGTTLTVSS
VL: DIVMTQAAFSNPVTLGTSASISCRSSKSLLHSNGITYLFWYLQKPGQSPQLLIYQMSNLASGVPDRFSSSGSGTDFTLRISRVEAEDVGVYYCAQNLELPWTFGGGTKLEIK
notes: Mouse-derived; also called mAb 1H9
With B1, the binding result in the assay with Human Siglec-11 is reported as “no binding”; with Human Siglec-8, “no binding”; in the assay with Human Siglec-9, “binds”; with Human Siglec-3, “no binding”; with Human Siglec-10, “no binding”; in the assay with Human Siglec-6 it was “no binding”. Besides, the values for the binding result in the assay with Human Siglec-12, in the assay with Human Siglec-7 and with Human Siglec-5 were “no binding”, “binds” and “no binding”, respectively.

B2: antibody 3A11 (antibody, V domains shown)
VH: EVQLQQSGTVLARPGASVKMSCKASGYSFTSYWMHWVKQRPGQGLEWIGAIYPGNSDTSYNQKFKDKAKLTAVTSASTAYMELSSLTNEDSAVYYCTTYYRYDGGFDYWGQGTTLTVSS
VL: DIQMTQSPKSMSMSVGERVTLSCKASETVGTYVSWYQQKPEQSPKLLIFGASNRNTGVPDRFTGSGSATDFTLTISSVQAEDLADYHCGQSYNYPYTFGGGTKLEIK
notes: Raised in Balb/c mice; hybridoma supernatants were screened with goat anti-mouse detection, and selected antibodies were also made as chimeric human IgG1 (also with N297Q); also called mAb 3A11
Regarding B2, the binding result in the assay with Human Siglec-11 is reported as “no binding”; in the assay with Human Siglec-8 it was “no binding”; in the assay with Human Siglec-9, “binds”; with Human Siglec-3 it was “no binding”; with Human Siglec-10 it was “no binding”; in the assay with Human Siglec-6, “no binding”. The binding result is “no binding” in the assay with Human Siglec-12, “binds” with Human Siglec-7 and “no binding” with Human Siglec-5.

B3: antibody 2B4 (antibody, V domains shown)
VH: B2 VH with S31N, N61I, D66G
VL: B2 VL with Q3V, T28N, G30D, E41D, I48L, F49Y, S77N, N93S, Y94Q
notes: Mouse-derived; also called mAb 2B4
As for B3, the binding result is on record as “no binding” with Human Siglec-11; “no binding” with Human Siglec-8; “binds” with Human Siglec-9; “no binding” with Human Siglec-3; “no binding” in the assay with Human Siglec-10; “no binding” with Human Siglec-6. Moreover, the binding result was “no binding” with Human Siglec-12, “binds” with Human Siglec-7 and “no binding” in the assay with Human Siglec-5.
